Target: T1, XPF S767F;ERCC1 wild type (hsERCC1) (Xenopus laevis;Homo sapiens?, UniProt A0A8J0PXV9;P07992 1-897;1-297, S767F|)
T1 sequence 1: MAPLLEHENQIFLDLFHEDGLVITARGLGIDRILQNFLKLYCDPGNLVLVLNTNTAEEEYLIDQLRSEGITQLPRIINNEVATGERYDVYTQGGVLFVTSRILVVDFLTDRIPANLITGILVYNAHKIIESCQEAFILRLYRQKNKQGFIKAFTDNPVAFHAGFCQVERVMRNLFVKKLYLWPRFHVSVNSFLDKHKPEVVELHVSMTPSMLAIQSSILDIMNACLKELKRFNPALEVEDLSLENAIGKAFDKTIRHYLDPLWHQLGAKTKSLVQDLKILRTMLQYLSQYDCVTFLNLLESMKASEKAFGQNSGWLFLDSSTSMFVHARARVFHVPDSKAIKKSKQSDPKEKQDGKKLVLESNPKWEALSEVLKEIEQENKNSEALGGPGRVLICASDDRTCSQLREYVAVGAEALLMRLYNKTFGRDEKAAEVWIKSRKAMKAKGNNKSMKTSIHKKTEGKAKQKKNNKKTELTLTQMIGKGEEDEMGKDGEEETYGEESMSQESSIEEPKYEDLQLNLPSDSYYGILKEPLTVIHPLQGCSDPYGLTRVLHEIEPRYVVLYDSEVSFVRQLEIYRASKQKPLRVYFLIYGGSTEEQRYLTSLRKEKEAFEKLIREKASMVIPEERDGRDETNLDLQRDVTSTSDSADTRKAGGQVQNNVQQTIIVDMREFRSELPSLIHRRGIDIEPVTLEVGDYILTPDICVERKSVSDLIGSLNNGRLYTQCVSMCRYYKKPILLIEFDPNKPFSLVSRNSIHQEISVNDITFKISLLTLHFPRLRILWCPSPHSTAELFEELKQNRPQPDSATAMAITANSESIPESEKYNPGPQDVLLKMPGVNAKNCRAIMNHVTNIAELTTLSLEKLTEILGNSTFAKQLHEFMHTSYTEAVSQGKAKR
T1 sequence 2: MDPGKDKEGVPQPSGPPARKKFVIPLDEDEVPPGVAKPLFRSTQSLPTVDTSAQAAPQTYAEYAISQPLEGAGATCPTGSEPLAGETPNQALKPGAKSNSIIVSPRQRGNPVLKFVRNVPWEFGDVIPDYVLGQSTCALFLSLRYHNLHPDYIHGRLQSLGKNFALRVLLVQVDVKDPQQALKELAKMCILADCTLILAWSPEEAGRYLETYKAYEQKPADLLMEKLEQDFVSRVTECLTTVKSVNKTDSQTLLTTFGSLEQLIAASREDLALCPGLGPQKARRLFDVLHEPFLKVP
Experiment: fluorescence anisotropy; 2 mM Ca2+; comparable to wild type; 25 mM Hepes pH 8.0, 15% glycerol, 0.1 mg/ml BSA, 2 mM CaCl2, 10 nM DNA, 1 h at room temperature
Conditions: protein: recombinant;recombinant; tags: FLAG;His; copies: 1;1; label: 5'-FAM on F1; three strands 1:1:1

B1: 3' flap DNA substrate (F1+F2+F3) (dsDNA)
DNA 1: CGCGATGCGGATCCAA
DNA 2: CCTAGACTTAAGAGGCCAGACTTGGATCCGCATCGC
DNA 3: GGCCTCTTAAGTCTAGG
  binding result: binds

Reference: paper PMC5510004, “Recruitment and positioning determine the specific role of the XPF‐ERCC1 endonuclease in interstrand crosslink repair”
